Patent US20100093014A1, “SCREENING FOR BONE ANABOLIC FACTORS” (NORDIC BIOSCIENCE IMAGING A/S, priority 2007, published 2010)

Tested on: TCF/LEF response elements
Experiment: TOPflash luciferase reporter system (TCF/LEF response elements) in UMR-106 cells
Type: cell-based, rat
Excerpt: We transiently infected UMR-106 cells (a rat sarcoma derived cell line) with a luciferase reporter system TOPflash containing 8 TCF/LEF response elements placed in the promoter region of the luciferase reporter gene.
To investigate the effect of secreted signals from osteoclasts we collected conditioned medium from osteoclasts cultured either on bone or on plastic, and compared their ability to induce activation of cells transiently transfected with the TCF/LEF reporter system to that of non-conditioned osteoclast culture medium. The cells were then treated for 24 hours with either control compounds, vehicle or the different conditioned media, after which the cells were lysed and the Luciferase activity was measured by a […] assay.

| Molecule | TCF/LEF activation (luciferase activity) (treated for 24 hours) | inhibition of TCF/LEF activation induced by conditioned medium from osteoclasts on bone (24 hours) | inhibition of TCF/LEF activation induced by signal from non-resorbing osteoclasts on plastic (24 hours) | inhibition of Wnt3A-induced TCF/LEF activation (activation by Wnt3A) |
| --- | --- | --- | --- | --- |
| Wnt3A: positive control for the TCF/LEF luciferase reporter (protein, UniProt P56704 19-352, looked up) Protein Wnt-3a: SYPIWWSLAVGPQYSSLGSQPILCASIPGLVPKQLRFCRNYVEIMPSVAEGIKIGIQECQHQFRGRRWNCTTVHDSLAIFGPVLDKATRESAFVHAIASAGVAFAVTRSCAEGTAAICGCSSRHQGSPGKGWKWGGCSEDIEFGGMVSREFADARENRPDARSAMNRHNNEAGRQAIASHMHLKCKCHGLSGSCEVKTCWWSQPDFRAIGDFLKDKYDSASEMVVEKHRESRGWVETLRPRYTYFKVPTERDLVYYEASPNFCEPNPETGSFGTRDRTCNVSSHGIDGCDLLCCGRGHNARAERRREKCRCVFHWCCYVSCQECTRVYDVHTCK | induces a strong activation | – | – | – |
| DKK1: Wnt inhibitor (protein, UniProt O94907 32-266, looked up) Dickkopf-related protein 1: TLNSVLNSNAIKNLPPPLGGAAGHPGSAVSAAPGILYPGGNKYQTIDNYQPYPCAEDEECGTDEYCASPTRGGDAGVQICLACRKRRKRCMRHAMCCPGNYCKNGICVSSDQNHFRGEIEETITESFGNDHSTLDGYSRRTTLSSKMYHTKGQEGSVCLRSSDCASGLCCARHFWSKICKPVLKEGQVCTKHRRKGSHGLEIFQRCYCGEGLSCRIQKDHHQASNSSRLHTCQRH | – | inhibited | again was inhibited | inhibits this activation |
